Measured values taken from patent publication EP4089108A1 (Cytoki Pharma ApS, dated 2022).

T1: human IL-22 receptor (human IL-22Ra and human IL-10Rb) expressed on BHK reporter cells (human, UniProt Q8N6P7 16-574; Q08334 20-325)
T1 sequence (looked up) 1: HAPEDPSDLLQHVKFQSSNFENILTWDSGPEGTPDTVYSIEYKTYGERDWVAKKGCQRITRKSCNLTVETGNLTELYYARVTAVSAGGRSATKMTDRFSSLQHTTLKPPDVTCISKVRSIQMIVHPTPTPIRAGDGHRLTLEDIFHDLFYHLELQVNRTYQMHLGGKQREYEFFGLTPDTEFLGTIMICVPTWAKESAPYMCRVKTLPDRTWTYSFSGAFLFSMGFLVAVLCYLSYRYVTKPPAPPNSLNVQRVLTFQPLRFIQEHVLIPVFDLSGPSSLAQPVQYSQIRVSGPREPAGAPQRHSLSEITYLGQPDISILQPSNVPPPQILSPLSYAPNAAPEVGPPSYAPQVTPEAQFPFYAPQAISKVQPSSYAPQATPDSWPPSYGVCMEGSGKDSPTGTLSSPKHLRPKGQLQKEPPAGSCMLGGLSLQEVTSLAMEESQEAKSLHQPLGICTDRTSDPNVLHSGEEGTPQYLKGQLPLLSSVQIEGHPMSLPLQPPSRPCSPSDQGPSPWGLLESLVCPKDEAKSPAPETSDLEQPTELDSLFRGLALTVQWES
T1 sequence (looked up) 2: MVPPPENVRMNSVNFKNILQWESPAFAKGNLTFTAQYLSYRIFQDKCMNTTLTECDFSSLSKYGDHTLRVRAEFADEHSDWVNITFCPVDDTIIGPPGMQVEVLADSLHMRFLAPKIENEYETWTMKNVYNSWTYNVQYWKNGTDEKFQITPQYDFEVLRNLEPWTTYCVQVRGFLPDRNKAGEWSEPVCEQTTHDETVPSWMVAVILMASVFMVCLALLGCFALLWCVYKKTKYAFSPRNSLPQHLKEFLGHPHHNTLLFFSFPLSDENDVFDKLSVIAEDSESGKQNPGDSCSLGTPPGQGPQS


Target: T1, human IL-22 receptor (human IL-22Ra and …)
Assay: cell-based or functional assay

EC50, BHK cell reporter gene assay (luciferase with STAT3-induced promoter) [nM]	Binder
0.06	Derivative 1 (ligand, C16 monoacid covalently attached through linker γGlu-OEG-OEG-εLys-αAc to Cys at position 1 of hIL-22 numbering (attachment site 1C; position 4 of SEQ ID NO. 20)) GPGCPISSHCRLDKSNFQQPYITNRTFMLAKEASLADNNTDVRLIGEKLFHGVSMSERCYLMKQVLNFTLEEVLFPQSDRFQPYMQEVVPFLARLSNRLSTCHIEGDDLHIQRNVQKLKDTVKKLGESGEIKAIGELDLLFMSLRNACI
0.07	native mature human IL-22 (ligand) APISSHCRLDKSNFQQPYITNRTFMLAKEASLADNNTDVRLIGEKLFHGVSMSERCYLMKQVLNFTLEEVLFPQSDRFQPYMQEVVPFLARLSNRLSTCHIEGDDLHIQRNVQKLKDTVKKLGESGEIKAIGELDLLFMSLRNACI
